Results reported in publication doi:10.1101/2024.01.22.576655 (bioRxiv, 2024).

Legend:
cross-linking = molecular target: the molecule itself; test: cross-linking
Ribosomal protein L29 = Ribosomal protein L29 (Escherichia coli (endogenous in …, UniProt P0A7M6 1-63)); test: cross-linking

B1: DnaJ, recombinant (natural protein, Escherichia coli, UniProt P08622 1-376, looked up)
chain: MAKQDYYEILGVSKTAEEREIRKAYKRLAMKYHPDRNQGDKEAEAKFKEIKEAYEVLTDSQKRAAYDQYGHAAFEQGGMGGGGFGGGADFSDIFGDVFGDIFGGGRGRQRAARGADLRYNMELTLEEAVRGVTKEIRIPTLEECDVCHGSGAKPGTQPQTCPTCHGSGQVQMRQGFFAVQQTCPHCQGRGTLIKDPCNKCHGHGRVERSKTLSVKIPAGVDTGDRIRLAGEGEAGEHGAPAGDLYVQVQVKQHPIFEREGNNLYCEVPINFAMAALGGEIEVPTLDGRVKLKVPGETQTGKLFRMRGKGVKSVRGGAQGDLLCRVVVETPVGLNERQKQLLQELQESFGGPTGEHNSPRSKSFFDGVKKFFDDLTR
B1: binds (cross-linking); binds (Ribosomal protein L29).
